Source: patent US20240132578A1

How the values were obtained:
Assay in all cases: cell-based or functional assay
[1] = biological target: HIV-1 Env of isolate MGRM-AE-004 (pseudovirus) (HIV-1)
[2] = biological target: HIV-1 Env of isolate JRCSF (HIV-1) (UniProt P20871)
[3] = biological target: HIV-1 Env of isolate MGRM-AE-005 (pseudovirus) (HIV-1)
[4] = biological target: HIV-1 Env of isolate SC422661.8 (HIV-1)
[5] = biological target: HIV-1 Env of isolate 92UG031 (pseudovirus) (HIV-1)
[6] = biological target: HIV-1 Env of isolate MGRM-Chronic-B-011 (HIV-1)
[7] = biological target: HIV-1 Env of isolate 93IN905 (HIV-1)
[8] = biological target: HIV-1 Env of isolate MGRM-AE-006 (pseudovirus) (HIV-1)
[9] = biological target: HIV-1 Env of isolate 98IN022 (HIV-1)
[10] = biological target: HIV-1 Env of isolate 93WR029 (pseudovirus) (HIV-1)
[11] = biological target: HIV-1 Env of isolate MGRM-Chronic-B-010 (HIV-1)
[12] = biological target: HIV-1 Env of isolate TRJ04551.58 (HIV-1)
[13] = biological target: HIV-1 Env of isolate MGRM-Chronic-B-024 (HIV-1)
[14] = biological target: HIV-1 Env of isolate 92WR021 (pseudovirus) (HIV-1)
[15] = biological target: HIV-1 Env of isolate 92WR024 (pseudovirus) (HIV-1)
[16] = biological target: HIV-1 Env of isolate 94UG103 (pseudovirus) (HIV-1)
[17] = biological target: HIV-1 Env of isolate 93UG077 (pseudovirus) (HIV-1)
[18] = biological target: HIV-1 Env of isolate 97ZA012 (HIV-1)
[19] = biological target: HIV-1 envelope glycoprotein (Env) of isolate MG RM-AG-006 (HIV-1)
[20] = biological target: HIV-1 Env of isolate THR0.18 (HIV-1)
[21] = biological target: HIV-1 Env of isolate VLGCB3 (HIV-1)
[22] = biological target: HIV-1 Env of isolate 92UG037 (pseudovirus) (HIV-1)
[23] = biological target: HIV-1 Env of isolate NL43 (HIV-1)
[24] = biological target: HIV-1 Env of isolate TRO.11 (HIV-1)
[25] = biological target: HIV-1 Env of isolate MGRM-Chronic-B-020 (HIV-1)
[26] = biological target: HIV-1 Env of isolate MGRM-Chronic-B-023 (HIV-1)
[27] = biological target: HIV-1 Env of pseudovirus isolate APV-6 (clade B) (HIV-1)
[28] = biological target: HIV-1 Env of isolate MGRM-Chronic-B-018 (HIV-1)
[29] = biological target: HIV-1 Env of isolate QH0692.42 (HIV-1)
[30] = biological target: HIV-1 Env of isolate 93MW959 (HIV-1)
[31] = biological target: HIV-1 Env of isolate 92WR020 (pseudovirus) (HIV-1)
[32] = biological target: HIV-1 Env of isolate SF162 (HIV-1) (UniProt P19550)
[33] = biological target: HIV-1 Env of isolate PVO.4 (HIV-1)
[34] = biological target: HIV-1 Env of isolate MGRM-Chronic-B-012 (HIV-1)
[35] = biological target: HIV-1 Env of isolate MGRM-Chronic-B-017 (HIV-1)

With VRC01 (antibody) the IC50 (µg/mL), single-round pseudovirus neutralization [1] was 0.187 µg/mL, the IC50, pseudovirus neutralization [2] was 0.164 µg/mL and the IC50 (µg/mL), single-round pseudovirus neutralization [3] was 0.029 µg/mL. The IC50, pseudovirus neutralization [4] was 0.179 µg/mL, the IC50 (µg/mL), single-round pseudovirus neutralization [5] was 0.469 µg/mL and the IC50, pseudovirus neutralization [6] was 0.587 µg/mL. For the same substance, the IC50, pseudovirus neutralization [7] was 0.138 µg/mL, the IC50 (µg/mL), single-round pseudovirus neutralization [8] was 4.65 µg/mL and the IC50, pseudovirus neutralization [9] was 0.342 µg/mL. For the same substance, the IC50 (µg/mL), single-round pseudovirus neutralization [10] was 1.57 µg/mL, the IC50, pseudovirus neutralization [11] was 0.156 µg/mL and the IC50, pseudovirus neutralization [12] was 0.06 µg/mL. The IC50, pseudovirus neutralization [13] was 0.377 µg/mL, the IC50 (µg/mL), single-round pseudovirus neutralization [14] was 0.066 µg/mL and the IC50 (µg/mL), single-round pseudovirus neutralization [15] was 0.327 µg/mL. The IC50 (µg/mL), single-round pseudovirus neutralization [16] was 0.285 µg/mL, the IC50 (µg/mL), single-round pseudovirus neutralization [17] was 0.097 µg/mL and the IC50, pseudovirus neutralization [18] was 0.088 µg/mL. For the same substance, the IC50 [19] was 0.344 µg/mL, the IC50, pseudovirus neutralization [20] was 2.46 µg/mL and the IC50, pseudovirus neutralization [21] was 0.108 µg/mL. It also gave an IC50 (µg/mL), single-round pseudovirus neutralization [22] of 0.245 µg/mL, an IC50, pseudovirus neutralization [23] of 0.1 µg/mL and an IC50, pseudovirus neutralization [24] of 0.186 µg/mL. For the same substance, the IC50, pseudovirus neutralization [25] was 0.424 µg/mL, the IC50, pseudovirus neutralization [26] was 0.275 µg/mL and the IC50, pseudovirus neutralization [27] was 1.81 µg/mL. For the same substance, the IC50, pseudovirus neutralization [28] was 0.328 µg/mL, the IC50, pseudovirus neutralization [29] was 1.19 µg/mL and the IC50, pseudovirus neutralization [30] was 0.053 µg/mL. The IC50 (µg/mL), single-round pseudovirus neutralization [31] was 0.13 µg/mL, the IC50, pseudovirus neutralization [32] was 0.421 µg/mL and the IC50, pseudovirus neutralization [33] was 0.218 µg/mL. For the same substance, the IC50, pseudovirus neutralization [34] was 1.03 µg/mL and the IC50, pseudovirus neutralization [35] was 0.141 µg/mL.
